Substitutions are numbered along the chain they refer to.
B1: antibody 434 (antibody, V domains shown)
VH: QVQLVQSGAEVKKPGASVQVSCKASGYTFSDYYIFWVRQAPGQGLEWMGCINPKSGGAIYAQRFQGRVTMTRDTSFNTAYMEMNRLGSDDTAVYYCVTRGPPDIAASGFAWHLDVWGQGTTVTVSS
VL: DIVMTQSPLSLPVTPGEPASISCRSSQSLLSSNGYNYLEWYLQKPGQSPQLLMYLGSNRASGVPDRFSGSGSGTDFTLKINRVEAEDVGVYYCMQALQTPLTFGGGTKVEIK
B2: antibody 439 (antibody, V domains shown)
VH: QVQLVESGGGVVQPGRSLRLSCAASGFTFSSYAMHWVRQAPGKGLEWVAVISYDGSNKYYADSVKGRFTISRDNSKNTLYLQMNSLRAEDTAVYYCARPPRGGSYYPFDPWGQGTLVTVSS
VL: not shown
B3: antibody 443 (antibody, V domains shown)
VH: QMRLEESGPGLVKPSETLSLTCTVAGGSITSSDYFWGWLRQSPGKGLEWIASTYHGGSIQYHPALKSRVTISVDASKNQISLRLSSVTAADTAVYYCARDRGDDGPMGTYYFDHWGQGALVTVSS
VL: QSVLTQPPSVSGAPGQSVTISCAGSSSNIGAGHDVHWYQQIPGTAPKLLICGNTNRPSGVPERFSGSRSGTSASLAITGLQAEDEAVYYCQSYDPSHVFFGTGTKLTVL
B4: antibody 444 (antibody, V domains shown)
VH: QVQLVESGGGLVKPGGSLRLSCAASGFTFSDYYMSWIRQAPGKGLEWVSYISSSGSTIYYADSVKGRFTISRDNAKNSLYLQMNSLRAEDTAVYYCARERKVVVAATRNYYYYYGMDVWGQGTTVTVSS
VL: SYELTQPPSVSVSPGQTARITCSGDALPKQYAYWYQQKPGQAPVLVIYKDSERPSGIPERFSGSSSGTTVTLTISGVQAEDEADYYCQSADSSTWVFGGGTKLTVL
B5: antibody 446 (antibody, V domains shown)
VH: B2 VH with P100N, R101S, G103S, S104Y, Y105F, Y106G, P107Y, D109Q, P110H
VL: QSVLTQPPSVSGAPGQRVTISCTGSSSNIGAGYDVHWYQQLPGTAPKLLIYGNSNRPSGVPDRFSGSKSGTSASLAITGLQAEDEADYYCQSYDSSLSGFYVFGTGTKVTVL
B6: antibody 452 (antibody, V domains shown)
VH: QVQLVESGGGLVKPGGSLRLSCAASGFTFSDYYLSWIRQAPGKGLEWVSYISSSGSNIYYADSVKGRFTISRDNAKNSLYLQMNSLRADDTAVFYCARAGRYCSGGSCRVEYFQHWGQGTLVTVSS
VL: SYELTQPPSVSVSPGQTARITCSGDALPKQYAYWYQQKPGQAPVLVIYKDNERPSGIPERFSGSSSGTTATLTISGVQAEDEADYYCQSADSSGTVVFGGGTKLTVL
B7: antibody 454 (antibody, V domains shown)
VH: QVQLVQSGAEVKKPGASLKVSCKASGYIFTGYYMHWVRQAPGQGLEWMGWISPNSGGTKYAQKFQGRVTMTRDTSISTAYMELSRLRSDDSAVYYCAREPYYDILTGYYTPRRYLDYWGQGTLVTVSS
VL: QSALTQPASVSGSPGQSITISCTGTSSDVGDYNYVSWYQQHPGKVPKLMIYDVSHRPSGVTNRFSGSKSGNTASLTISGLRAEDEADYYCSSYTSSSTYVFGTGTKVTVL
B8: antibody 470 (antibody, V domains shown)
VH: not shown
VL: QSALTQPASVSGSPGQSITISCTGTSSDVGSYNLVSWYQQHPGKAPKLMIYEVSKRPSGVSNRFSGSKSGNTASLTISGLQAEDEADYYCCSYAGSSTLVFGGGTKLTVL
B9: antibody 474 (antibody, V domains shown)
VH: EVQLVESGGGLVQPGGSLRLSCAASGFTFSSYWMHWVRQAPGKGLVWVSRINSDGSSTSYADSVKGRFTISRDNAKNTLYRQMNSLRAEDTAVYYCALGPLDIVGSYYYYGMDVWGQGTTVTVSS
VL: NFMLTQPHSVSESPGKTVTISCTGSSGSIASNYVQWYQQRPGSAPTTVIYEDNQRPSGVPDRFSGSIDSSSNSASLTISGLKTEDEADYYCQSYDSSNQDVVFGGGTKLTVL
B10: antibody 475 (antibody, V domains shown)
VH: QVQLVESGGGVVQPGRSLRLSCAASGFTFSSYAMHWVRQAPGKGLEWVTFISHEGSNKYYADSVKGRFTISRDNSKNTLYLQMNSLRAEDTAVYYCARTFEYSSSSATGDFDYWGQGTLVTVSS
VL: QSVLTQPPSVSGAPGQRVTISCTGSSSNIGAGYDVHWYQQLPGTAPKLLIYGNSNRPSGVPDRFSGSKSGTSASLAITGLQAEDEADYYCQSYDSSLSGVVFGGGTKLTVL
B11: antibody 476 (antibody, V domains shown)
VH: QVQLVQSGSELKKPGASVKVSCKASGYTFTSYAMNWVRQAPGQGLEWMGWINTNTGNPTYAQGFTGRFVFSLDTSVSTAYLQISSLKAEDTGVYYCARDHELPNSSSWFGHFEYWGQGTLVTVSS
VL: SYELTQPPSVSVSPGQTARITCSGDALPKQYAYWYQQKAGQAPVLVIYKDSERRSGIPERFSGSSSGTTVTLTISGVQAEDEADYYCQSADSSGTSVVFGGGTKLTVL
B12: antibody 477 (antibody, V domains shown)
VH: QVQLVESGGGVVQPGRSLRLSCAASGITFSSYAMHWVRQAPGKGLEWVAVISYDGSDKYHADSVKGRFAISRDNSKNTLYLQMNSLRAEDTAVYYCAKDKGIAVAGTGWIRPDPEYYFDYWGQGTLVTVSS
VL: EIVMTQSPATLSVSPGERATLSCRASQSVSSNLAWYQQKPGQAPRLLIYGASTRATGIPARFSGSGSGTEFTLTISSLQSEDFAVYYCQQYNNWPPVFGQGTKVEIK
B13: antibody 395 (antibody, V domains shown)
VH: QVQLVQSGSELKKPGASVKLSCQASGYTFSNHAMNWVRQAPGQGLEWMGWINTNTGNPTYAQGFTGRFVFSLDTSVGTAYLHISSLKAEDTAFYYCARASARPGVATNLDFWGQGTLVVVSS
VL: DIQMTQSPSSLSASVGDRVTITCRTSQNIDNYLNWYQQKPGKAPNLLIYAASRLHSGVPSRFSGSGSGTDFTLIISSLQPEDLATYYCQQSYSNPLTFGPGTKVDIR
B14: antibody 396 (antibody, V domains shown)
VH: QVQLQQWGAGLLKPSETLSLTCAVYGGSFSGYYWSWIRQPPGKGLEWIGEIIHSGSTNYNPSLKSRVTISVDTSKNQFSLKLSSVTAADTAVYYSARRTGLLWFREGSYYFDYWGQGTLVTVSS
VL: DIQMTQSPSSLSASVGDRVTITCRASQGIRNDLGWYQQKPGKAPKRLIYAASSLQSGVPSRFSGSGSGTEFTLTISSLQPEDFATYYCLQHNSYPLTFGGGTKVEIK
B15: antibody 404 (antibody, V domains shown)
VH: QVQLVESGGGVVQPGRSLRLSCAASGFTFSSYGMHWVRQAPGKGLEWVAVIWYDGSNKYYADSVKGRFTISRDNSKNTLYLQMNSLRAEDTAVYYCARLAVDISFDGSDGMDVWGQGTTVTVSS
VL: SYELTQPPSVSVSPGQTARITCSGDALPKKYAYWYQQKSGQAPVLVIYEDSKRPSGIPERFSGSSSGTMATLTISGAQVEDEADYYCYSTDSSGKGVFGTGTKVTVL
B16: antibody 405 (antibody, V domains shown)
VH: not shown
VL: B8 VL with A8R, I18V, S31G, L34Y, E52D, S61P, N62D, S97Y, T98N, L99V
B17: antibody 407 (antibody, V domains shown)
VH: QVQLVESGGGVVQPGRSLRLSCAASGFTFSSYGMHWVRQAPGKGLEWVAVISYDGSNKYYADSVKGRFTISRDNSKNTLYLQMNSLRAEDTAVYYCAKCGWDYDFWVGQGYGMDVWGQGTTVTVSS
VL: not shown
B18: antibody 409 (antibody, V domains shown)
VH: QVTLRESGPALVKPTQTLTLTCTFSGFSLSTSGMCVSWIRQPPGKALEWLALIDWDDDKYYSTSLKTRLTISKDTSKNQVVLTMTNMDPVDTATYYCARTTYYYVSGRRAEFDPWGQGTLVTVSS
VL: NFMLTQPHSVSESPGKTVTISCTGSSGSIASNYVQWYQQRPGSAPTTVIYEDNQRPSGVPDRFSGSIDSSSNSASLTISGLKTEDEADYYCQSYDSSNQGVFGGGTKLTVL
B19: antibody 412 (antibody, V domains shown)
VH: QVQLVQSGAEVKKPGASVKVSCKASGYTFTSYGISWVRQAPGQGLEWMGWISAYNGNTNYAQKLQGRVTMTTDTSTSTAYMELRSLRSDDTAVYYCARVTVEAIFGVVILPLKNWFDPWGQGTLVTVSS
VL: B10 VL with S98T, G99L, V100Y, G104T, L108V
B20: antibody 421 (antibody, V domains shown)
VH: QVQLVESGGGVVQPGRSLRLSCAASGFTFSTYAMHWVRQAPGKGLEWVAVISYDGSNKYYADSVKGRFTISRDNSKNTLYLQMNSLRAEDTAVYYCARGYGSGSYYPLYLYWGQGTLVTVSS
VL: not shown
B21: antibody 422 (antibody, V domains shown)
VH: QVQLVQSGSELKKPGASVKVSCKASGYTFTSYAMNWVRQAPGQGLEWMGWINTNTGNPTYAQGFTGRFVFSLDTSVSTTYLQISSLKAEDTAVYYCARVIGVVTYYYYGMDVWGQGTTVTVSS
VL: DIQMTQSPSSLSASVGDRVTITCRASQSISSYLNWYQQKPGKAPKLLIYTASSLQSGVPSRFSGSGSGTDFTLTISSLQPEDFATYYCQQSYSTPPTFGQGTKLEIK
B22: antibody 423 (antibody, V domains shown)
VH: EVQLVESGGGLIQPGGSLRISCAASGFTVRNNHMSWVRQAPGKGLEWVSVFYRGGTTYYADSVKGRFTISRDDSKNTVDLQMNSLRGEDTAVYYCARGLSVAASGYFDCWGQGTLVTVSS
VL: DIQMTQSPSSVSASVGDTVTITCRANQGISSWLAWYQQVPGKAPELLIYATSTLQSGVPSRFSGSGSGTDFTLTISSLQPEDFATYYCQQANSFPFTFGPGTKVDIK
B23: antibody 431 (antibody, V domains shown)
VH: B2 VH with V48L, P99S, P100F, S104Y, P107G, F108M, P110V, L116T
VL: DIQLTQSPSFLSASVGDRVTITCRASQGISSYLAWYQQKPGKAPKLLIYAASTLQSGVPSRFSGSGSGTEFTLTISSLQPEDFATYYCQQLNSYPLFTFGPGTKVDIK

The binders below were run against SARS-CoV spike protein (full length, trimeric) (SARS-CoV, UniProt P59594 14-1190).

Binder	fold over isotype control (median fluorescence)
B1	1.36 fold over isotype
B2	1.23 fold over isotype
B3	1.03 fold over isotype
B4	1 fold over isotype
B5	6.58 fold over isotype
B6	1.09 fold over isotype
B7	1.1 fold over isotype
B8	1.09 fold over isotype
B9	1.1 fold over isotype
B10	1.18 fold over isotype
B11	1.04 fold over isotype
B12	1.3 fold over isotype

These binders were tested against SARS-CoV spike protein (full length spike, trimeric, conjugated to beads) (SARS-CoV, UniProt P59594 14-1190).

Binder	median fluorescence fold over isotype control
B13	1.16 fold over isotype control
B14	1.36 fold over isotype control
B15	1.04 fold over isotype control
B16	80.9 fold over isotype control
B17	1.07 fold over isotype control
B18	1.03 fold over isotype control
B19	1.09 fold over isotype control
B20	1.19 fold over isotype control
B21	1.19 fold over isotype control
B22	1.23 fold over isotype control
B23	49.9 fold over isotype control

From patent US20210292393A1 (published 2021)
